Laboratory results as given in US20220289816A1, “IMMUNOTHERAPY WITH B*07 RESTRICTED PEPTIDES AND COMBINATION OF PEPTIDES AGAINST CANCERS AND RELATED METHODS” (Immatics Biotechnologies GmbH, priority 2018, published 2022).

Each substance was assayed against HLA-B*07 (Homo sapiens, UniProt P01889) (assay: MHC binding assay (UV-ligand exchange, ELISA of stabilized MHC complexes)). Conditions: peptide exchange yield on HLA-B*07, UV-ligand exchange.
Source text: Candidate peptides for T cell based therapies according to the present invention were further tested for their MHC binding capacity (affinity). The individual peptide-MHC complexes were produced by UV-ligand exchange, where a UV-sensitive peptide is cleaved upon UV-irradiation and exchanged with the peptide of interest as analyzed. Only peptide candidates that can effectively bind and stabilize the peptide-receptive MHC molecules prevent dissociation of the MHC complexes. To determine the yield of the exchange reaction, an ELISA was performed based on the detection of the light chain (β2m) of stabilized MHC complexes. The assay was performed as generally described in Rodenko et al. (Rodenko et al., 2006)
96 well MAXISorp plates (NUNC) were coated over night with 2 ug/ml streptavidin in PBS at room temperature, washed 4× and blocked for 1 h at 37° C. in 2% BSA containing blocking buffer. […] Peptide-MHC monomers of the UV-exchange reaction were diluted 100-fold in blocking buffer. Samples were incubated for 1 h at 37° C., washed four times, incubated with 2 ug/ml HRP conjugated anti-[…] for 1 h at 37° C., washed again and detected with TMB solution that is stopped with […]. Absorption was measured at 450 nm. Candidate peptides that show a high exchange yield (preferably higher than 50%, most preferred higher than 75%) are generally preferred for a generation and production of antibodies or fragments thereof, and/or T cell receptors or fragments thereof, as they show sufficient avidity to the MHC molecules and prevent dissociation of the MHC complexes.

Substance	Peptide exchange
196 (RPSGTAGAAL; listed as Homo sapiens) [compound 196]	+++ (>50 = +++)
198 (LPSPAHAFRAL; listed as Homo sapiens) [compound 198]	+++ (>50 = +++)
202 (SPSREASAL; listed as Homo sapiens) [compound 202]	+++ (>50 = +++)
208 (RNRQVATAL; listed as Homo sapiens) [compound 208]	+++ (>50 = +++)
210 (IPENRVVSY; listed as Homo sapiens) [compound 210]	++ (>20% = ++)
212 (VPYAAQAAL; listed as Homo sapiens) [compound 212]	++++ (>75% = ++++)
213 (RPYQDAPVA; listed as Homo sapiens) [compound 213]	++++ (>75% = ++++)
215 (IPVAIKEL; listed as Homo sapiens) [compound 215]	++ (>20% = ++)
217 (SPGDKRLAAYL; listed as Homo sapiens) [compound 217]	+++ (>50 = +++)
219 (VPHTGRYTCL; listed as Homo sapiens) [compound 219]	+++ (>50 = +++)
221 (LPQRPNARL; listed as Homo sapiens) [compound 221]	+++ (>50 = +++)
222 (MLKTTLTAF; listed as Homo sapiens) [compound 222]	+ (>10% = +)
223 (KAHVRIEL; listed as Homo sapiens) [compound 223]	++ (>20% = ++)
224 (SPIIHSILL; listed as Homo sapiens) [compound 224]	++++ (>75% = ++++)
226 (APGGSSRSSL; listed as Homo sapiens) [compound 226]	+++ (>50 = +++)
227 (RPGTGQGGL; listed as Homo sapiens) [compound 227]	+++ (>50 = +++)
228 (RPTAASQSRAL; listed as Homo sapiens) [compound 228]	+++ (>50 = +++)
229 (FPNAGPRHLL; listed as Homo sapiens) [compound 229]	+++ (>50 = +++)
231 (SPITLQAL; listed as Homo sapiens) [compound 231]	++++ (>75% = ++++)
232 (TAYPSLRLL; listed as Homo sapiens) [compound 232]	+++ (>50 = +++)
233 (MAYDRFIAI; listed as Homo sapiens) [compound 233]	+++ (>50 = +++)
234 (HPRAPGEQQRL; listed as Homo sapiens) [compound 234]	+++ (>50 = +++)
238 (LPRAGGAFLM; listed as Homo sapiens) [compound 238]	++++ (>75% = ++++)
239 (VLPRAGGAFLM; listed as Homo sapiens) [compound 239]	+++ (>50 = +++)

Substance	Peptide exchange
240 (RVMLPKAAL; listed as Homo sapiens) [compound 240]	+++ (>50 = +++)
242 (IPETASVVAI; listed as Homo sapiens) [compound 242]	+++ (>50 = +++)
243 (MARTGGMVVI; listed as Homo sapiens) [compound 243]	++ (>20% = ++)
246 (RPILKEQSSSSF; listed as Homo sapiens) [compound 246]	++++ (>75% = ++++)
247 (SPVGVGQRL; listed as Homo sapiens) [compound 247]	+++ (>50 = +++)
249 (SPRSGVLL; listed as Homo sapiens) [compound 249]	+++ (>50 = +++)
250 (APAAPAAVPS; listed as Homo sapiens) [compound 250]	++ (>20% = ++)
252 (QPENSLEGISL; listed as Homo sapiens) [compound 252]	+++ (>50 = +++)
255 (VPSHWMVAL; listed as Homo sapiens) [compound 255]	++++ (>75% = ++++)
258 (SVIGPNSRL; listed as Homo sapiens) [compound 258]	++ (>20% = ++)
260 (LVQSSRSEV; listed as Homo sapiens) [compound 260]	++++ (>75% = ++++)
261 (SPSTSRTPL; listed as Homo sapiens) [compound 261]	+++ (>50 = +++)
262 (SPSTSRTPLLSSL; listed as Homo sapiens) [compound 262]	++++ (>75% = ++++)
265 (FPRKPYEGRV; listed as Homo sapiens) [compound 265]	+++ (>50 = +++)
266 (KPYEGRVEI; listed as Homo sapiens) [compound 266]	++++ (>75% = ++++)
267 (MPVPGILL; listed as Homo sapiens) [compound 267]	+++ (>50 = +++)
268 (EPLSVTASY; listed as Homo sapiens) [compound 268]	++ (>20% = ++)
269 (FTVSSSSAM; listed as Homo sapiens) [compound 269]	++ (>20% = ++)
270 (SPRGTTSTL; listed as Homo sapiens) [compound 270]	+++ (>50 = +++)
271 (SPTPVFTTL; listed as Homo sapiens) [compound 271]	+++ (>50 = +++)
272 (SSPRGTTSTL; listed as Homo sapiens) [compound 272]	+++ (>50 = +++)
273 (TDTPSTTPTTI; listed as Homo sapiens) [compound 273]	++ (>20% = ++)
274 (KPIRTGISPLAL; listed as Homo sapiens) [compound 274]	+++ (>50 = +++)

Other lines, results leading:

Peptide exchange	Substance
++ (>20% = ++)	197 (RPSGTAGAALLA; listed as Homo sapiens) [compound 197]
++ (>20% = ++)	199 (SPFWIHQA; listed as Homo sapiens) [compound 199]
++++ (>75% = ++++)	201 (LPIARVLTV; listed as Homo sapiens) [compound 201]
++ (>20% = ++)	203 (KPRGPIDI; listed as Homo sapiens) [compound 203]
+++ (>50 = +++)	204 (FPYSGDKILV; listed as Homo sapiens) [compound 204]
+++ (>50 = +++)	206 (TPRIGPKVSL; listed as Homo sapiens) [compound 206]
+++ (>50 = +++)	207 (VPSDITTAF; listed as Homo sapiens) [compound 207]
+++ (>50 = +++)	209 (KIEQIRAVL; listed as Homo sapiens) [compound 209]
+++ (>50 = +++)	211 (IPDTIASVL; listed as Homo sapiens) [compound 211]
+ (>10% = +)	214 (LPLKFFPII; listed as Homo sapiens) [compound 214]
+++ (>50 = +++)	216 (LPWEQNEQV; listed as Homo sapiens) [compound 216]
+++ (>50 = +++)	220 (RPAPGPAPFV; listed as Homo sapiens) [compound 220]
+++ (>50 = +++)	225 (SPIIHSIL; listed as Homo sapiens) [compound 225]
++++ (>75% = ++++)	230 (DVIDDIISL; listed as Homo sapiens) [compound 230]
+ (>10% = +)	235 (AQNPAGTAL; listed as Homo sapiens) [compound 235]
+++ (>50 = +++)	236 (TPELKSSIL; listed as Homo sapiens) [compound 236]
++++ (>75% = ++++)	237 (LPRAGGAF; listed as Homo sapiens) [compound 237]
++ (>20% = ++)	244 (VPAHLVAA; listed as Homo sapiens) [compound 244]
++++ (>75% = ++++)	245 (GPVPSPLAL; listed as Homo sapiens) [compound 245]
+++ (>50 = +++)	248 (KPYDGIPAS; listed as Homo sapiens) [compound 248]
++++ (>75% = ++++)	251 (MPVDSFNSM; listed as Homo sapiens) [compound 251]
++++ (>75% = ++++)	253 (MPVDSFNSML; listed as Homo sapiens) [compound 253]
++++ (>75% = ++++)	254 (RVIQGTTTL; listed as Homo sapiens) [compound 254]
++++ (>75% = ++++)	256 (SPVPSHWMVAL; listed as Homo sapiens) [compound 256]
++++ (>75% = ++++)	259 (VPMPGVQAV; listed as Homo sapiens) [compound 259]
++ (>20% = ++)	263 (SQRPPATSQA; listed as Homo sapiens) [compound 263]
+++ (>50 = +++)	264 (APRPGNWIL; listed as Homo sapiens) [compound 264]
